# Source: publication PMC3927129 (Science (New York, N.Y.), 2011)
# B1: subunit K of the Enterococcus hirae rotary ATPase (K10 membrane ring) (natural protein)
# chain: MMDYLITQNGGMVFAVLAMATATIFSGIGSAKGVGMTGEAAAALTTSQPEKFGQALILQLLPGTQGLYGFVIAFLIFINLGSDMSVVQGLNFLGASLPIAFTGLFSGIAQGKVAAAGIQILAKKPEHATKGIIFAAMVETYAILGFVISFLLVLNA
# Molecular target: the molecule itself
# Experiment: native MS
protein,measurement,value
B1,stoichiometry N,10
